# Experimental data as given in article PMC7079142.
# Read-outs that look alike come from different tables or passages of the source.
# Legend:
# [1] = molecular target: T1, StrepII-SUMO-DUX4-His6 (Homo sapiens, UniProt Q9UBX2 1-424); test: TR-FRET competition
# [2] = molecular target: T1, StrepII-SUMO-DUX4-His6; test: fluorescence polarization
# [3] = molecular target: T1, StrepII-SUMO-DUX4-His6; test: TR-FRET competition; remark: listed apart in the source
# [4] = molecular target: T1, StrepII-SUMO-DUX4-His6; test: TR-FRET competition; remark: listed apart in the source
# [5] = molecular target: T1, StrepII-SUMO-DUX4-His6; test: TR-FRET competition; remark: listed apart in the source
# [6] = molecular target: T2, PROP1-cMyc-DDK (UniProt O75360 1-226); test: TR-FRET competition
# [7] = molecular target: T2, PROP1-cMyc-DDK; test: TR-FRET competition; remark: listed apart in the source
# [8] = molecular target: T1, StrepII-SUMO-DUX4-His6; test: TR-FRET competition; remark: listed apart in the source
# [9] = molecular target: T1, StrepII-SUMO-DUX4-His6; test: TR-FRET competition; remark: listed apart in the source
# [10] = molecular target: T1, StrepII-SUMO-DUX4-His6; test: EMSA
# [11] = molecular target: T1, StrepII-SUMO-DUX4-His6; test: TR-FRET competition; remark: listed apart in the source
# [12] = molecular target: T1, StrepII-SUMO-DUX4-His6; test: TR-FRET competition; remark: listed apart in the source
# [13] = molecular target: T1, StrepII-SUMO-DUX4-His6; test: TR-FRET competition; remark: listed apart in the source
# [14] = molecular target: T1, StrepII-SUMO-DUX4-His6; test: TR-FRET competition; remark: listed apart in the source
# [15] = molecular target: T1, StrepII-SUMO-DUX4-His6; test: TR-FRET competition; remark: listed apart in the source
# [16] = molecular target: T2, PROP1-cMyc-DDK; test: TR-FRET competition; remark: listed apart in the source
# [17] = molecular target: T1, StrepII-SUMO-DUX4-His6; test: TR-FRET competition; remark: listed apart in the source
# [18] = molecular target: T1, StrepII-SUMO-DUX4-His6; test: TR-FRET competition; remark: listed apart in the source
# T1 sequence (Q9UBX2 whole entry): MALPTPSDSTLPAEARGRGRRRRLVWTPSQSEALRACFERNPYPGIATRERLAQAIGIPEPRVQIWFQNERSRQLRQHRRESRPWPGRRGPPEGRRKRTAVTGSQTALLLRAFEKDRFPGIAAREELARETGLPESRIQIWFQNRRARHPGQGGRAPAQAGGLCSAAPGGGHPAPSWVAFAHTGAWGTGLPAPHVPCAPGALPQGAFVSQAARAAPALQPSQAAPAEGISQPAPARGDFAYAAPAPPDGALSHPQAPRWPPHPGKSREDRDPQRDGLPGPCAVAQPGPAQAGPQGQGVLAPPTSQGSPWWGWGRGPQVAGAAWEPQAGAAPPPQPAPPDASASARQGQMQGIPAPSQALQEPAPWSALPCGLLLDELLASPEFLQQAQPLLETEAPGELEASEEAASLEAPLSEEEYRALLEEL
# T2 sequence (O75360 whole entry): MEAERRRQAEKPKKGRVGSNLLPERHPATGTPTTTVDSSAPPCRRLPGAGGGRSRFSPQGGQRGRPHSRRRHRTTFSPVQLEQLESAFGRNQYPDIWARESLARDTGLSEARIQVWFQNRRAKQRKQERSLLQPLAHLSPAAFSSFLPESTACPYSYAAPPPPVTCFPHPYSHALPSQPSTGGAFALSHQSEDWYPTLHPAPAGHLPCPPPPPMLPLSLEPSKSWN
binder,measurement,setting,value
TGGTGAAGCGCAAGGAAACTTAATCACAAGGTGATTAATTGTTTG (structured_DNA) [SELEX#2],binding result,[1],binds
GCTAACTTAATCAACCGCAGGTTGATTAGCCCATTAGC (structured_DNA) [Kd aptamer as printed in text and Fig 7],Kd,[2],~20 nM
GCTAATCTAATCAACCGCAGGTTGATTAGCCCATTAGC (structured_DNA) [DUX4_TCT_R7CCC],binding signal,[3],~10 fold affinity vs loop-free template
GCTAACTTAATCAACCGCAGGTTGATTAACCCGTTAGC (structured_DNA) [DUX4_CTT_R7CCC (DUX4_CTT_loop)],binding signal,[4],~20 fold affinity vs backbone
same,binding signal,[5],~21 fold IC50 gain vs DUX4_CTT
same,binding signal,[6],~5 fold IC50 gain vs DUX4_CTT
CTAGATTAACCCGTTTACCAAGCGATGGAAACTTAATCTCCATGG (structured_DNA) [SELEX#5],binding result,[1],binds
GCTAACTTAACTCAACCGCAGGTTGATTAACCCGTTAGC (structured_DNA) [DUX4_CTT_F8C_R7CCC],binding signal,[4],~2 fold lower affinity than single-loop DUX4_CTT_R7CCC
same,binding result,[7],binds
GCTAATCTAACCTCAACCGCAGGTTGATTAGATTAGC (structured_DNA) [DUX4_TCT_F8CC],binding result,[8],binds
GCTAATCTAACTTCAACCGCAGGTTGATTAGATTAGC (structured_DNA) [DUX4_TCT_F8CT],binding result,[9],binds
AGCTAACCTAATCAACCGCAGGTTGATTAGCCCGTTAGC (structured_DNA) [DUX4_CTT_R7CCC as in T1 for S3B-C],binding result,[10],binds
GCTAATCTAACCCTCAACCGCAGGTTGATTAGATTAGC (structured_DNA) [DUX4_TCT_F8CCC],binding result,[9],binds
GCATAAACTTAATCAAGACCAGGTCATTGATTAACGCTCGTTTGG (structured_DNA) [SELEX#1],binding result,[1],binds
GCTAATCTAATCAACCGCAGGTTGATTAGTTTATTAGC (structured_DNA) [DUX4_TCT_R7TTT],binding result,[11],binds
GCTAATCTAATCAACCGCAGGTTGATTAGCCCCCATTAGC (structured_DNA) [DUX4_TCT_R7CCCCC],binding result,[12],binds
GCTAATCTAATCAACCGCAGGTTGATTAGCCCCATTAGC (structured_DNA) [DUX4_TCT_R7CCCC],binding result,[12],binds
GCTAATCTAATCAACCGCAGGTTGATTAGCCATTAGC (structured_DNA) [DUX4_TCT_R7CC],binding result,[13],binds
GCTAATCTAATCAACCGCAGGTTGATTAGATTAGC (structured_DNA) [DUX4_TCT],binding signal,[14],~3 fold higher IC50 than DUX4_CCT
GCTAACCTAATCAACCGCAGGTTGATTAGGTTAGC (structured_DNA) [DUX4_CCT],binding result,[15],binds
GCTAATTTAATTAACCGCAGGTTAATTAAATTAGC (structured_DNA) [PROP1 aptamer],binding result,[16],binds
GCTAATCTAATCAACCGCAGGTTGATTAGCATTAGC (structured_DNA) [DUX4_TCT_R7C],binding result,[12],binds
GCTAATCTAACCCCTCAACCGCAGGTTGATTAGATTAGC (structured_DNA) [DUX4_TCT_F8CCCC],binding result,[9],binds
GCTAATCTAACTCAACCGCAGGTTGATTAGATTAGC (structured_DNA) [DUX4_TCT_F8C],binding result,[17],binds
GCTAATCTAAGTCAACCGCAGGTTGATTAGATTAGC (structured_DNA) [DUX4_TCT_F8G],binding result,[18],binds
GCTAATCTAATTCAACCGCAGGTTGATTAGATTAGC (structured_DNA) [DUX4_TCT_F8T],binding result,[18],binds
